Experiment [1] has as its target FITC-casein. The experiment can be described thus: fluorescence polarization, 6 nM FITC-casein with 0-5 uM Hsp104, 2 mM ATPgS, 25 C. Background: Fluorescence polarisation rises when a labelled molecule tumbles more slowly, as on binding a larger partner.
Experiment [2] addresses FITC-casein. As to the kind of experiment: cell-based or functional assay.

A word on the Kd: it is the constant that tells how readily two partners part at equilibrium. The low end stands for tighter binding, the high end for weaker binding. Substance Hsp104A503V (from UniProt P31539 1-908) came in with a Kd with FITC-casein [1] of 80 nM.

For the substance HAPA503V (from UniProt P31539 1-908), in the experiment with FITC-casein [2], the Km of FITC-casein degradation (translocation into ClpP), initial rates against FITC-casein concentration came to 1.29 µM.

As for Hsp104WT (from UniProt P31539 1-908), the Kd with FITC-casein [1] is 65 nM. In other words, the double-digit nanomolar range.

As to HAPWT (from UniProt P31539 1-908), in the experiment with FITC-casein [2], the Km of FITC-casein degradation (translocation into ClpP), initial rates against FITC-casein concentration came out at 2.88 µM.
